Measured values taken from FireProtDB (doi:10.1111/j.1432-1033.1988.tb14214.x).

Settings: Bos taurus; pH 7.1; 25 °C; Urea; CD; PIPES 20 mM; reversible: yes; whole UniProt chain shown

B1: Protein S100-G wild type, P02633 (protein)
chain: MSAKKSPEELKGIFEKYAAKEGDPNQLSKEELKLLLQTEFPSLLKGPSTLDELFEELDKNGDGEVSFEEFQVLVKKISQ
denaturant m value: 0.91 kcal/mol/M
denaturant midpoint (higher = more stable): 5.2 M
unfolding free energy: 4.78 kcal/mol
